{"source": "paper PMC6819661", "key": {"[1]": {"test_system": "GST-NS2A(58-133) (Zika virus)", "assay": "pull-down", "details": "EMSA: 50 mM Tris-HCl pH 7.5, 10 mM 2-mercaptoethanol, 2 mM MgCl2, 50 mM KCl, 15 min at 24 C, 100 pM biotinylated RNA, 0.4% agarose; pull-down: Pierce magnetic …"}, "GST-NS2A (Zika virus)": {"test_system": "GST-NS2A (Zika virus)", "assay": "EMSA", "details": "EMSA: 50 mM Tris-HCl pH 7.5, 10 mM 2-mercaptoethanol, 2 mM MgCl2, 50 mM KCl, 15 min at 24 C, 100 pM biotinylated RNA, 0.4% agarose; pull-down: Pierce magnetic …"}}}
{"substance": "5' UTR-C66-3' UTR-biotin RNA", "values": [{"measurement": "binding signal (% (reference))", "setting": "[1]", "result": 100}, {"measurement": "Kd", "setting": "GST-NS2A (Zika virus)", "result": 10.3, "unit": "nM"}]}
